Results from patent US20130052176, “APTAMER FOR NGF AND USE THEREOF” (SHIONOGI & CO., LTD, published 2013).

B1: aptamer ID 13 (ssRNA)
RNA: GGGAGAACUUCGCCAGAAGUUUGAAAGAAACCCAAAUUAAAGUAUGUGCGCAUACA
modifications: 2'-F at all pyrimidines
B2: aptamer ID 15 (ssRNA)
RNA: GGGAGAACUUCGCCAGAAGUUUGAAAGAAACCCAUUAAAAAGUAUGUGCGCAUACA
modifications: 2'-F at all pyrimidines
B3: aptamer ID 51 (ssRNA)
RNA: GGAGAACUUCGACCAGAGUCGAUAACGAACAAAACUCCAAAUAUGUGCGCAUAC
modifications: 2'-F at all pyrimidines
B4: aptamer ID 44 (ssRNA)
RNA: GGGAGAACUUCGACCAGAAGUCGAUAACGAACAAAACUCCCAAAGGAUGUGCGCAUACA
modifications: 2'-F at all pyrimidines
B5: aptamer ID 45 (ssRNA)
RNA: GGGAGAACUUCGACCAGAAGUCGAUAACGAACAAAACUCCCAAAUAAUGUGCGCAUACA
modifications: 2'-F at all pyrimidines
B6: aptamer ID 17 (ssRNA)
RNA: GGGAGAACUUCGCCAGAAGUUUGAAAGAAACCCAAAUUAAAGAUGUGCGCAUCA
modifications: 2'-F at all pyrimidines
B7: aptamer ID 58 (mixed)
mixed: GGGAUAAAAAUAGAGUUUGATAAACACCUGUAUTAAAACCC
modifications: 5' cholesterol; 3' idT; 2'-F pyrimidines (except dT at 21,34) and a37,a38; 2'-OMe other purines except 2'-OH at 4,7,30
B8: aptamer ID 59 (mixed)
mixed: GGGAUAAAAAUAGAGUUUGATAAACACCUGUAUUAAAACCC
modifications: 5' cholesterol; 3' idT; 2'-F pyrimidines (except dT at 21 and dC at 41) and a37,a38; 2'-OMe other purines except 2'-OH at 4,7,30
B9: aptamer ID 18 (ssRNA)
RNA: GGGAGAACUUCGCCAGAAGUUUGAAAGAAACCCAAAUAAAGAUGUGCGCAUCA
modifications: 2'-F at all pyrimidines
B10: aptamer ID 16 (ssRNA)
RNA: GGGAGAACUUCGCCAGAAGUUUGAAAGAAACCCAAAUUAAAAAGAUGUGCGCAUCA
modifications: 2'-F at all pyrimidines
B11: aptamer ID 50 (ssRNA)
RNA: GGGAGAACUUCGACCAGAGUCGAUAACGAACAAAACUCCCAAUAUGUGCGCAUAC
modifications: 2'-F at all pyrimidines
B12: aptamer ID 9 (ssRNA)
RNA: GGGAGAACUUCGACCAGAAGUUUGAAAGAAACCCAAAUUAAAAAGAUGUGCGCAUCA
modifications: 2'-F at all pyrimidines
B13: aptamer ID 49 (ssRNA)
RNA: GGGAGAACUUCGACCAGAAGUCGAUAACGAACAAAACUCCCAAUAUGUGCGCAUACA
modifications: 2'-F at all pyrimidines
B14: aptamer ID 11 (ssRNA)
RNA: GGGAGAACUUCGCCAGAAGUUUGAAAGAAACCCAAAUAAAAAGUAUGUGCGCAUACA
modifications: 2'-F at all pyrimidines
B15: aptamer ID 12 (ssRNA)
RNA: GGGAGAACUUCGCCAGAAGUUUGAAAGAAACCCAAAUUAAAAGUAUGUGCGCAUACA
modifications: 2'-F at all pyrimidines
B16: aptamer ID 14 (ssRNA)
RNA: GGGAGAACUUCGCCAGAAGUUUGAAAGAAACCCAAUUAAAAAGUAUGUGCGCAUACA
modifications: 2'-F at all pyrimidines
B17: aptamer ID 39 (ssRNA)
RNA: GGGAGAACUUCGACCAGAAGUCGAUAACGAACAAAACUCCCAAAGGAAAUGUGCGCAUACA
modifications: 2'-F at all pyrimidines
B18: aptamer ID 41 (ssRNA)
RNA: GGGAGAACUUCGACCAGAAGUCGAUAACGAACAAAACUCCCAAAGGUAAUGUGCGCAUACA
modifications: 2'-F at all pyrimidines
B19: aptamer ID 40 (ssRNA)
RNA: GGGAGAACUUCGACCAGAAGUCGAUAACGAACAAAACUCCCAAAUAUAUGUGCGCAUACA
modifications: 2'-F at all pyrimidines
B20: aptamer ID 42 (ssRNA)
RNA: GGGAGAACUUCGACCAGAAGUCGAUAACGAACAAAACUCCCGGAAUAAUGUGCGCAUACA
modifications: 2'-F at all pyrimidines

target: NGF (nerve growth factor) (human, UniProt P01138 P01138:122-241); assay: cell_activity; neurite outgrowth, NGF 1.1 nM; SPR binding; details: tags: amine-coupled to CM5 chip in SPR; soluble in cell assays; chain copies: 2
Sequence (P01138 122-241, one chain of several): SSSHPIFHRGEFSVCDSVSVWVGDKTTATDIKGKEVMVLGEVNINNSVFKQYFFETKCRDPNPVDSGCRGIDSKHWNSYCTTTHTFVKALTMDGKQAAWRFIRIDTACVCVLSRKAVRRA
Experimental: The neurite outgrowth inhibitory activity of the aptamer obtained in Example 1 was evaluated by using Neuroscreen-1 cell, which is a subclone of PC-12 cells.
The cells (2500 cells per well) were cultured for one day in an RPMI-1640 medium containing 2.5% horse serum and 1.25% fetal bovine serum in a 96 well flat-bottom plate coated with collagen type IV. […] Two days later, the cytoplasm and nuclei were stained using Cellomics Neurite Outgrowth Kit (manufactured by Thermo Scientific), and neurite length per cell was measured by Cellomics ArrayScan VTI (manufactured by Thermo Scientific). With the neurite length per cell obtained by the addition of NGF alone as inhibitory activity 0%, and that of the cell obtained by NGF free culture for 2 days as inhibitory activity 100%, the inhibitory activity of the aptamer was calculated from the neurite length per cell obtained by culturing with the addition of NGF and the aptamer in mixture. When the inhibitory activity was 0% or below, ‘0%’ is indicated.

Q: For B1, which IC50 is on record?
A: The IC50 was 1.3 nM.

Q: With B2 as the binder, how does the IC50 read?
A: Its IC50 is 1.9 nM.

Q: B3 was tested. Which IC50 did it give?
A: The IC50 was 2.7 nM.

Q: Which IC50 does the source give for B4 here?
A: The IC50 was < 3 nM.

Q: How did the IC50 turn out when B5 was run?
A: The IC50 was < 3 nM.

Q: How did the IC50 turn out when B6 was run?
A: The IC50 was < 1 nM.

Q: For B7, which IC50 is on record?
A: The IC50 was 5.4 nM.

Q: Which IC50 does the source give for B8 here?
A: Its IC50 is 6.9 nM.

Q: With B9 as the binder, how does the IC50 read?
A: Its IC50 is < 10 nM.

Q: B10 was tested. Which IC50 did it give?
A: The IC50 was 1.1 nM.

Q: With B11 as the binder, how does the IC50 read?
A: The IC50 was 2.6 nM.

Q: B12 was tested. Which IC50 did it give?
A: The IC50 was < 3 nM.

Q: With B13 as the binder, how does the IC50 read?
A: Its IC50 is 1.8 nM.

Q: With B14 as the binder, how does the IC50 read?
A: The IC50 was 1.5 nM.

Q: How did the IC50 turn out when B15 was run?
A: The IC50 was 1.4 nM.

Q: B16 was tested. Which IC50 did it give?
A: The IC50 was 1.2 nM.

Q: Which IC50 does the source give for B17 here?
A: Its IC50 is < 3 nM.

Q: B18 was tested. Which IC50 did it give?
A: The IC50 was < 3 nM.

Q: B19 was tested. Which IC50 did it give?
A: The IC50 was < 3 nM.

Q: With B20 as the binder, how does the IC50 read?
A: The IC50 was < 3 nM.
